Molecular target: MMP-14 catalytic domain (Homo sapiens, UniProt P50281)
Experiment: enzyme inhibition assay

Ki: 0.18 nM
B1: N-TIMP2D-Cys-PEG N-terminal domain (protein)
chain: CSCSPVHPQQAFCNADVVIRAKAVSEKEVDSGNDIYGNPIKRIQYEIKQIKMFKGPEKDIEFIYTAPSSAVCGVSLDVGGKKEYLIAGKAEGDGKMHITLCDFIVPWDTLSTTQKKSLNHRYQMGC
modifications: PEGylated
